{"source": "patent US20110135634A1", "about": "“METHODS OF INHIBITING INFECTION BY DIVERSE SUBTYPES OF DRUG-RESISTANT HIV-1” (priority 2007, published 2011)", "molecules": {"B1": {"name": "PRO 140: humanized IgG4,κ anti-CCR5 mAb being developed for HIV-1 therapy (antibody, chains of the INN, looked up, V domains shown)", "VH": "EVQLVESGGGLVKPGGSLRLSCAASGYTFSNYWIGWVRQAPGKGLEWIGDIYPGGNYIRNNEKFKDKTTLSADTSKNTAYLQMNSLKTEDTAVYYCGSSFGSNYVFAWFTYWGQGTLVTVSS", "VL": "DIVMTQSPLSLPVTPGEPASISCRSSQRLLSSYGHTYLHWYLQKPGQSPQLLIYEVSNRFSGVPDRFSGSGSGTDFTLKISRVEAEDVGVYYCSQSTHVPLTFGQGTKVEIK"}}, "key": {"[1]": {"tested_on": "HIV-1 (CCR5-tropic virus)", "assay_type": "in vivo", "conditions": "for Mean log10 HIV RNA change: Day 10 post-treatment", "description": "The efficacy data collected during the study were changes in viral load and CD4 counts over time. The safety data collected during the study were serious adverse events (SAEs)/adverse events (AEs) and changes in laboratory parameters (hematology, chemistry), physical exam, viral tropism and ECGs over time.\nAll patients were screened prior to the study for the presence of virus that utilizes only CCR5 as the entry coreceptor, i.e., CCR5-tropic virus.\nThe primary efficacy endpoint was the reduction in plasma HIV RNA level as measured by the Roche Amplicor™ Assay. The primary efficacy endpoint is the maximum change from baseline in viral load, defined as HIV-1 copies/ml, as measured by the Roche Amplicor™ Assay."}, "[2]": {"conditions": "human, in vivo", "description": "(§1) Individuals were treated in sequential, dose-rising cohorts of 5 subjects (4 active and 1 placebo) each and evaluated for up to 120 days post-treatment. […] Safety assessments consisted of monitoring the following: vital signs (blood pressure, pulse, temperature, etc; hematology (hemoglobin, hematocrit, leukocytes, platelets, etc.); serum chemistries (AST/ALT, alkaline phosphatase, BUN, creatinine, etc.); urinalysis (pH, specific gravity, protein, glucose, leukocytes, etc.); and ECGs (12-lead).\nSera were diluted as appropriate and combined with L1.2-CCR5 cells, which are mouse pre-B lymphoma cells engineered to stably express human CCR5. […] Following incubation with test samples, cells were washed and combined with a FITC-labeled sheep antibody against human IgG4 (The Binding Site Limited, Cat. #AF009). Cells were washed again and analyzed by flow cytometry.\nSerum was collected post-treatment, cryopreserved, and analyzed for PRO 140 levels. Peak serum concentrations ranged to […] at 0.1 mg/kg and […] at 0.5 mg/kg."}, "[3]": {"conditions": "human, in vivo", "description": "as §1", "remark": "listed apart in the source"}, "[4]": {"target": "T1, CCR5 on CEM.NKR-CCR5 cells (Homo sapiens, UniProt P51681)", "T1 construct": "host or cells: CEM.NKR-CCR5 (transduced human T cell leukemia line)", "T1 sequence (P51681 whole entry)": "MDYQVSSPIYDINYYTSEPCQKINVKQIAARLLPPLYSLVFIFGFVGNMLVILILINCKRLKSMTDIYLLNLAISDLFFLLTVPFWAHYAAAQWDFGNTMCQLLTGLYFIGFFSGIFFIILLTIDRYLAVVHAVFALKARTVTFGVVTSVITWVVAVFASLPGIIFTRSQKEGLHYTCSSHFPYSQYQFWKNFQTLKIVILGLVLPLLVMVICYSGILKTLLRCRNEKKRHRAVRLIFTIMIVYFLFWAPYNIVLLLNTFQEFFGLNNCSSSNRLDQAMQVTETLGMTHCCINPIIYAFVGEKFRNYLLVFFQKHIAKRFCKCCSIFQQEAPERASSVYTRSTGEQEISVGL", "test": "Competition binding: inhibition of PRO 140-PE binding", "conditions": "based on percent cells gated; 5 nM PRO 140-PE", "description": "Azide was added to block CCR5 internalization during the assay."}, "[5]": {"tested_on": "CCR5 lymphocytes", "assay_type": "in vivo, human", "description": "Whole blood specimens were combined separately with the indicated phycoerythrin-labeled anti-CCR5 antibodies or with appropriate isotype-control antibodies. Erythocytes were lysed and leukocytes were stabilized using the ImmunoPrep Reagent System (Beckman Coulter), and the cells were analyzed on a TQ Prep™ flow cytometry workstation (Beckman Coulter). Data were expressed as the percent of CCR5 cells relative to all cells gated in the analysis.\nFor up to 60 days post-treatment, at the times indicated in FIG. 6, blood was collected and analyzed for CCR5 lymphocyte levels.\nBackground binding of isotype control antibodies was unchanged."}, "[6]": {"tested_on": "HIV-1JR-CSF", "test": "hu-PBL-SCID mouse model of HIV-1 infection (FIG. 5)", "assay_type": "in vivo, SCID mice", "conditions": "multiple doses after steady state viral levels", "description": "SCID mice were reconstituted with normal human peripheral blood mononuclear cells and infected 2 weeks later with HIV-1JR-CSF. Multiple doses of PRO 140 were administered following attainment of steady state viral levels. Plasma viral loads pre- and post-injection are indicated."}, "[7]": {"tested_on": "reporter viruses pseudotyped with HIV-1JR-FL envelope (U87-CD4-CCR5 cells)", "test": "microbe, parasite or virus in culture", "assay_type": "cell-based"}, "[8]": {"target": "T1, CCR5 on CEM.NKR-CCR5 cells", "test": "Competition binding: inhibition of 3H-UK-427,857 binding", "conditions": "read-out: EC50, inhibition of 3H-UK-427,857 binding; 2 nM 3H-UK-427,857, CEM.NKR-CCR5 cells", "from_the_text": "The cells were washed in PBSA and lysed with 0.5N HCl prior to scintillation counting using a Wallac 1410 instrument."}, "[9]": {"tested_on": "primary R5 HIV-1 isolates JR-FL and Case C 1/85 (CC1/85)", "test": "In vitro resistance selection and susceptibility testing on PBMC", "assay_type": "cell-based", "conditions": "p24 ELISA", "description": "For susceptibility testing, viruses were cultured in vitro on stimulated PBMC. In the presence and absence of serially diluted drug, and the extent of viral replication was determined by p24 ELISA."}, "[10]": {"tested_on": "reporter viruses pseudotyped with HIV-1SF162 envelope (U87-CD4-CCR5 cells)", "test": "HIV-1 pseudovirus assay, SF162 envelope", "assay_type": "cell-based", "description": "A self-inactivating (SIN) vector was derived from the pNL4-3ΔEnv-luciferase vector (Dragic et al. 1996) by deleting 507 basepairs in the U3 region of the 3′ long terminal repeat (LTR) so as to remove the TATA box and transcription factor binding sites. The human cytomegalovirus promoter was inserted upstream of the luciferase (luc) gene to enable expression of luciferase following integration.\nReporter viruses pseudotyped with HIV-1JR-FL or HIV-1SF162 envelopes were generated by cotransfection of 293T cells with the SIN vector and the appropriate pcDNA env-expressing vector as previously described (Dragic et al. 1996). […] Cultures were incubated for 72 h at 37° C. in DMEM containing 10% fetal bovine serum, […] puromycin, 0.3 mg/mL geneticin, antibiotics, and 0.5% DMSO. Luciferase activity (relative light units or RLU) was measured using. BrightGlo reagent (Promega, Madison, Wis.) according to the manufacturer's instructions.\nExperimental design and data analysis were based on the combination index (CI) method (Chou et al. 1991; Chou et al. 1984). […] The mutually exclusive CI formula was used for combinations of CCR5 inhibitors, while the mutually non-exclusive formula was utilized for combinations of inhibitors to distinct targets (Chou et al. 1991). Each test was conducted 4-12 times. Synergy, additivity and antagonism are indicated by CI<1, CI=1 and CI>1, respectively."}, "[11]": {"conditions": "JRFL, labelled 1st inhibitor with 2nd inhibitor PRO 140 (equimolar; 1:10 PRO 140 to nevirapine or zidovudine)"}, "[12]": {"conditions": "SF162, labelled 1st inhibitor with 2nd inhibitor PRO 140 (equimolar; 1:10 PRO 140 to nevirapine or zidovudine)"}}, "note": "Where “and” joins values, the source holds several entries; their conditions need not be identical. Equal entries are not always repeated. Where two headings read alike, the source gives them in different places."}
{"molecule": "B1", "values": [{"measurement": "individual reductions of viral load", "setting": "[1]; 2.0 mg/kg and 5.0 mg/kg dose levels", "value": "up to 2.5 log10 and ≤ 99.7%"}, {"measurement": "AUC viral load", "setting": "[1]; 5 mg/kg", "value": "significantly decreased"}, {"measurement": "Maximum decrease of viral load at any time", "setting": "[1]; 5 mg/kg", "value": "−1.8", "unit": "log"}, {"measurement": "Patients with <400 copies/mL (anytime)", "setting": "[1]; 5 mg/kg", "value": "4/10"}, {"measurement": "Patients with >1 log decrease (anytime)", "setting": "[1]; 5 mg/kg", "value": "10/10"}, {"measurement": "time of return of viral load to baseline", "setting": "[1]; 5.0 mg/kg cohort", "value": "approximately 30 days"}, {"measurement": "time to suppression of mean viral load by 1.0 log10 (90%)", "setting": "[1]; 5.0 mg/kg cohort", "value": "within four days"}, {"measurement": "time viral load persisted at or below the 1.0 log10 level of reduction", "setting": "[1]; 5.0 mg/kg cohort", "value": "two to three weeks"}, {"measurement": "mean increase in CD4+ lymphocytes", "setting": "[1]; 5 mg/kg, day 8", "value": 129, "unit": "cells/μL"}, {"measurement": "Viral load decrease", "setting": "[1]; 5 mg/kg, day 22", "value": "−0.73"}, {"measurement": "Mean log10 HIV RNA change", "setting": "[1]; 0.5 mg/kg", "value": "−0.37", "unit": "log10"}, {"measurement": "Mean log10 HIV RNA change", "setting": "[1]; 2.0 mg/kg", "value": "−1.04", "unit": "log10"}, {"measurement": "Mean log10 HIV RNA change", "setting": "[1]; 5.0 mg/kg", "value": "−1.70", "unit": "log10"}, {"measurement": "response rate (percentage of patients with a ≧1 log10 decrease in HIV RNA at any time)", "setting": "[1]; highest dose cohort", "value": 100, "unit": "%"}, {"measurement": "terminal serum half-life", "setting": "[2]", "value": "240 to 288", "unit": "h"}, {"measurement": "dose-limiting toxicity", "setting": "[3]", "value": "no dose-limiting toxicity"}, {"measurement": "EC90", "setting": "[4]", "value": 17, "unit": "nM"}, {"measurement": "overall number of CCR5 lymphocytes as measured by CTC5 binding", "setting": "[5]; in vivo, 2 mg/kg", "value": "no decrease"}, {"measurement": "time CCR5 lymphocytes effectively coated without cellular depletion", "setting": "[5]; single 2 mg/kg dose", "value": "two weeks"}, {"measurement": "time cells remain partially coated", "setting": "[5]; single 2 mg/kg dose", "value": "> 4", "unit": "weeks"}, {"measurement": "time cells remain partially coated", "setting": "[5]; single 5 mg/kg dose", "value": "> 60", "unit": "days"}, {"measurement": "control of viral replication (plasma viral loads)", "setting": "[6]", "value": "prolonged control of viral replication"}, {"measurement": "IC50", "setting": "[7]; HIV-1 envelope JRFL, 1st inhibitor alone, read-out: IC50", "value": 2.2, "unit": "nM"}, {"measurement": "IC90", "setting": "[7]; HIV-1 envelope JRFL, 1st inhibitor alone, read-out: IC90", "value": 28, "unit": "nM"}, {"measurement": "CI50", "setting": "[7]; [11]", "value": "1.2 ± 0.32"}, {"measurement": "CI90", "setting": "[7]; [11]", "value": "0.90 ± 0.15"}, {"measurement": "EC50", "setting": "[8]", "value": 14, "unit": "nM"}, {"measurement": "inhibition of SCH-D escape mutants", "setting": "[9]", "value": "efficiently inhibited"}, {"measurement": "IC50", "setting": "[10]; HIV-1 envelope SF162, 1st inhibitor alone, read-out: IC50", "value": 1.3, "unit": "nM"}, {"measurement": "IC90", "setting": "[10]; HIV-1 envelope SF162, 1st inhibitor alone, read-out: IC90", "value": 20, "unit": "nM"}, {"measurement": "CI50", "setting": "[10]; [12]", "value": "1.0 ± 0.27"}, {"measurement": "CI90", "setting": "[10]; [12]", "value": "0.86 ± 0.33"}]}
